In test [1] the target is hLDLR of non-genetically modified human cells (human fibroblasts, HUVEC) (human) (UniProt P01130). The test is described as follows: FACS on HUVEC, competition; displaced: bacterial viruses expressing SEQ ID NO: 11.
Test [2] shares this target. The test is described as follows: FACS on HUVEC, competition; displaced: bacterial viruses expressing SEQ ID NO: 21.

Chain of hLDLR of non-genetically modified human cells (human fibroblasts, HUVEC) (human) (P01130 22-860): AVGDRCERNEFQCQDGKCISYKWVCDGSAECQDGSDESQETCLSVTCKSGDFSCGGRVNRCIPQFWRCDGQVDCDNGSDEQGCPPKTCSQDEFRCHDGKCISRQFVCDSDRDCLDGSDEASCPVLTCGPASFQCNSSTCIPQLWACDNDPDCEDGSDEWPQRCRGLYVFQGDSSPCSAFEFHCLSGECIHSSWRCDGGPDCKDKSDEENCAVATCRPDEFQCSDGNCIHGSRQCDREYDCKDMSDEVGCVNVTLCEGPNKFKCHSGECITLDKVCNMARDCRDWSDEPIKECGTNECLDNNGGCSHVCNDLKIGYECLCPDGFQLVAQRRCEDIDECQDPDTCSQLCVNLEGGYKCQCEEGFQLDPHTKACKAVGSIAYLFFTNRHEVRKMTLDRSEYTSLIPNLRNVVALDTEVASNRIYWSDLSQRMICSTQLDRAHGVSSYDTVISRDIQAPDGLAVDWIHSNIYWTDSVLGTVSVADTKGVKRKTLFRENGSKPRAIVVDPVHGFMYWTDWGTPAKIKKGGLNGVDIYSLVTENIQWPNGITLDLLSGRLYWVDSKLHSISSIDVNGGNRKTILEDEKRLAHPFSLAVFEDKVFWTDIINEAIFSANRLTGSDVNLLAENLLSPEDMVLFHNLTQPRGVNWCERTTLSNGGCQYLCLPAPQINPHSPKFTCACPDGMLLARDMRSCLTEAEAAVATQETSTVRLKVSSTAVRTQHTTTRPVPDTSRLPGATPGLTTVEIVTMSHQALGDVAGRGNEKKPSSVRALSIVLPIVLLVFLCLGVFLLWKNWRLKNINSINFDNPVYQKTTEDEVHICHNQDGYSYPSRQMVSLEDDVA

With LDL, natural ligand of hLDLR, the loss of signal in Q2 on adding LDL in test [1] turned out to be 17%; in test [2] it was 85%.

Values taken from patent US20110230416A1.
